Experimental data published in PMC3670040, “Structure of Lipid Kinase p110β/p85β Elucidates an Unusual SH2-Domain-Mediated Inhibitory Mechanism” (Molecular Cell, 2011).
Read-outs that look alike come from different tables or passages of the source.

Key:
p110β [1] = molecular target: T1, p110β (Mus musculus, UniProt Q8BTI9); test: Transcreener ADP formation (fluorescence polarization), diC8-PIP2/POPS liposomes, mouse p110β complexes; format: biochemical; settings: 10 μM PDGFR pY2; Figure 3A
T1 construct: Mouse His6-p110β(1-1064)/p85β-icSH2(423-722) complex; made in house; host or cells: Sf9 insect cells (baculovirus co-infection)
T1 sequence (Q8BTI9 whole entry, one chain of several): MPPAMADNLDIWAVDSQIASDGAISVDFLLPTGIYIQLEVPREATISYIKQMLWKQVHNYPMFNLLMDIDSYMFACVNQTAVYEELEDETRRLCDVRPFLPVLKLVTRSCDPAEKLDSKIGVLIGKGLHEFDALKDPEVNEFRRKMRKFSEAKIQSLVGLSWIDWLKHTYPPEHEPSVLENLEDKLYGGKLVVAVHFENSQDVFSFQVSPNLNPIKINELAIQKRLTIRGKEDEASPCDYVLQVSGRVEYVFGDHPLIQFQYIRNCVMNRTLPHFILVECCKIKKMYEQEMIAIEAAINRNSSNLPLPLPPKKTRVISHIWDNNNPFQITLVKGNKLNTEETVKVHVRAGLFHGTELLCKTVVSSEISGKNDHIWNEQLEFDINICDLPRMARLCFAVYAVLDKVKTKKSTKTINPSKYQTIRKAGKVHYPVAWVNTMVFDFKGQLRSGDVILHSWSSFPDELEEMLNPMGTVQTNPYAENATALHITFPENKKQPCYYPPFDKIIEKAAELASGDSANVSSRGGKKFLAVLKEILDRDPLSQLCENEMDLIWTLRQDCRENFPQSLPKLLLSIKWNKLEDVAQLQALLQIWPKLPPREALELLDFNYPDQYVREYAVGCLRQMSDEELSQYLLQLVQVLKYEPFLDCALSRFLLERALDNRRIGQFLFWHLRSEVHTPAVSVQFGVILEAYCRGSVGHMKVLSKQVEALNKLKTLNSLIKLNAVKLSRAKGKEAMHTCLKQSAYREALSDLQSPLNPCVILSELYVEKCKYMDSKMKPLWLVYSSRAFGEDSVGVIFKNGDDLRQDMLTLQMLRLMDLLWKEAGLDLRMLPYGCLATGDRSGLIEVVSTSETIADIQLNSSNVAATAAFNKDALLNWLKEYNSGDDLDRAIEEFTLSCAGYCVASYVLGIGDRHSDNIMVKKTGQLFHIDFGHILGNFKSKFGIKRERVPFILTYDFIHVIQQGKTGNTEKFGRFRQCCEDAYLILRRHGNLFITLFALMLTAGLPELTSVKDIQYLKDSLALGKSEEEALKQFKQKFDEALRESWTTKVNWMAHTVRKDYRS
Protocol: (§1) Figure 1 Inhibition of p110β by p85-Type Regulatory Subunits and Activation of the Complexes by RTK Phosphopeptide (A) Domain organization of p110β and the regulatory subunits p85α, p85β, and p55γ. The color scheme for the domains is used for all figures, unless otherwise stated. […] The inhibition is released upon addition of the 10 μM PDGFR pY2. […] The y axis is expressed as a change in fluorescence polarization (ΔmP), which is obtained by subtracting the observed polarization for the construct at a given enzyme concentration from the maximum fluorescence polarization for that construct. The plateau in these assays arises due to the competitive nature of the ADP detection system, based on displacement of ADP-Alexa 633 tracer from the ADP^2-antibody by ADP generated during the PI3K assay (see Supplemental Experimental Procedures). All measurements were done in triplicates, and the error bars indicate the standard error of the mean (SEM). (C) Kinase activity of p110β/p85β complexes with monomeric substrate (75 μM diC8-PIP2) in the presence and absence of pY2; y axis as in (B). (D) Basal- and pY2-stimulated activities of 35 nM PI3K complexes in the absence of lipids (ATP hydrolysis). Activities are given as percent of ATP converted to ADP using the Transcreener assay. Bars indicate SEM. TEXT PRINTED IN THE PICTURE: (B) p110β/nic: EC50 (nM): 15 | (B) p110β/nic+pY2: EC50 (nM): 0.14 | (B) p110β/ic: EC50 (nM): 1 | (B) p110β/ic+pY2: EC50 (nM): 0.21 | (B) p110β/ni: EC50 (nM): 0.84 | (B) p110β/ni+pY2: EC50 (nM): 0.24 | (B) p110β/i: EC50 (nM): 0.12 | (B) p110β/i+pY2: EC50 (nM): 0.14 | (B) ΔABD-p110β: EC50 (nM): 0.06 | (B) ΔABD-p110β+pY2: EC50 (nM): 0.05 | (C) p110β/nic: EC50 (nM): 24 | (C) p110β/nic+pY2: EC50 (nM): 3 | (C) p110β/ic: EC50 (nM): 5 | (C) p110β/ic+pY2: EC50 (nM): 2 | (C) p110β/ni: EC50 (nM): 4 | (C) p110β/ni+pY2: EC50 (nM): 2 […]
(§2) Figure 3 Mutation Y677A in p85β-cSH2 Releases Inhibitory Effect on p110β (A) Kinase activity (ADP formation) of p110β in a complex with p85β-icSH2-Y677A (Y677A-ic) compared to the wild-type complex (ic) in the absence and presence of 10 μM PDGFR pY2 (ADP formation on the y axis expressed as in Figure 1B). (B) Comparison of p110β activities of 1 nM complexes with wild-type or Y677 mutant nicSH2 or icSH2 (activity shown as in Figure 1D). TEXT PRINTED IN THE PICTURE: (A) p110β/ic: EC50 (nM): 1 | (A) p110β/ic+pY2: EC50 (nM): 0.15 | (A) p110β/ic-Y677A: EC50 (nM): 0.11 | (A) p110β/ic-Y677A+pY2: EC50 (nM): 0.08 […]
(§3) The lipid kinase activity was determined using the Transcreener ADP2 FP Assay (BellBrook Labs, Madison, WI) according to manufacturer‟s specifications. This non-radioactive assay measures activity by quantitating the amount of ADP formed. The ADP formed by PI3K competes with fluorescent ADP tracer for binding to an anti-ADP antibody, thereby decreasing fluorescence polarization. Because of the competitive nature of this assay, the change in fluorescence polarization signal is not a linear function of enzyme activity, and a convenient measure of enzyme activity is the EC50, or the concentration of enzyme necessary to give half-maximal inhibition of labeled ADP binding to the antibody, for a given concentration of substrate and a fixed time of reaction at initial rate. While activity of two different enzyme constructs can be compared at a fixed concentration of protein and a fixed concentration of substrate, the assay is most reliable when about 2%-10% of the ATP is […]
(§4) Consequently, the EC50 provides a convenient way to compare the activities of various constructs. Briefly, reactions were performed in 10 μl volume in 384-well black plates (Corning 3676) and they contained final 100 μM ATP, 75 μM lipids and a series of protein concentration varying from 0.001 nM to 2.5 μM. Serial dilutions of protein heterodimers were prepared in buffer F (50 mM Hepes pH 7.5, 100 mM NaCl, 0.03% CHAPS, 4 mM DTT) in 5 μl […]
volume. […]

p110β [2] = test: as above; format: biochemical; settings: for EC50: Figure 3A, Y677A vs wild-type, diC8-PIP2/POPS, 100 μM ATP, 1 h, room temperature
Protocol: as §1, §2, §3, §4
volume. […]

- activation by pY2 (p110β [1]): not activated by pY2
- EC50 (p110β [2]; absence of pY2, read-out: EC50 (enzyme concentration), kinase activity, basal): 0.11 nM
- EC50 (p110β [2]; with 10 μM PDGFR pY2, read-out: EC50 (enzyme concentration), kinase activity, + pY2): 0.08 nM
B1: p110β/ic-Y677A: p110β in a complex with p85β-icSH2-Y677A (protein)
chain: QQDQVVKEDSIEAVGAQLKVYHQQYQDKSREYDQLYEEYTRTSQELQMKRTAIEAFNETIKIFEEQGQTQEKCSKEYLERFRREGNEKEMQRILLNSERLKSRIAEIHESRTKLEQDLRAQASDNREIDKRMNSLKPDLMQLRKIRDQYLVWLTQKGARQRKINEWLGIKNETEDQYSLMEDEDALPHHEERTWYVGKINRTQAEEMLSGKRDGTFLIRESSQRGCYACSVVVDGDTKHCVIYRTATGFGFAEPANLYGSLKELVLHYQHASLVQHNDALTVTLAHPVRAPGPGPPSAAR
- basal activity versus wild-type complex (p110β [2]; absence of pY2, ADP formation, Figures 3A, 3B): more active than the wild-type p110β/p85β-icSH2
